Laboratory results taken from patent US20150175705A1.

T1: human prolactin receptor (PRLR) expressed on cells (human) (UniProt P16471)
T1 sequence: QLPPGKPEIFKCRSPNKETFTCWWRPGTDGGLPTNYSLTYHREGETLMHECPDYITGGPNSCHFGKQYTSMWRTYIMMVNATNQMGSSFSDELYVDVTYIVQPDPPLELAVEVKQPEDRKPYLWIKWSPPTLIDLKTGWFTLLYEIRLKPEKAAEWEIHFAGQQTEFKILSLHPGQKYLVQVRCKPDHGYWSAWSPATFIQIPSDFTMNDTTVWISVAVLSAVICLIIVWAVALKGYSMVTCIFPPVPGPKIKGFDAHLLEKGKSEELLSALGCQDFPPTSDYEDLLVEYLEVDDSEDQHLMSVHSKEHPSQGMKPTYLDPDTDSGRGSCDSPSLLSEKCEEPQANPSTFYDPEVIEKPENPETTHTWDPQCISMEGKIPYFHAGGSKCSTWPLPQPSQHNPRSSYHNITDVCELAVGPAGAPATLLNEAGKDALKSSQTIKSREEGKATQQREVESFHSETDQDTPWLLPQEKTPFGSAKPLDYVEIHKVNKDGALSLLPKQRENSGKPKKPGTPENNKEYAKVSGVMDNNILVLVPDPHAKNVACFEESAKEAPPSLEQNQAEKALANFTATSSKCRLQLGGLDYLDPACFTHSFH


Assays:
[1] = biological target: T1, human prolactin receptor (PRLR) expressed on cells (human); test: flow cytometry on CHO-K1 cells expressing human PRLR (clone 1G5)
[2] = biological target: T1, human prolactin receptor (PRLR) expressed on cells (human); test: cell-based or functional assay

MFI [1] [MFI] | pERK1/2 inhibition IC50 [2] | Molecule
33.8 | – | mAb 1167, control murine anti-PRLR monoclonal antibody (R&D Systems, catalog # MAB 1167)
– | 0.11 | XHA.06.983 (antibody, from another filing, V domains shown) VH: DVQLVESGGGLVQPGGSRKLSCAASGFAFSSFGMQWVRQAPEKGLEWVAYISSGSSTIYYADTVKGRFTISRDNPKNTLFLQMTSLRSEDTAMYYCVRSGRDYWGQGTSVTVSS VL: SIVMTQTPKFLLVSAGDRVTITCKASQGVSNDVAWFQQKPGQSPKLLIYSASTRYTGVPDRLTGSGYGTDFTFTINTVQAEDLAVYFCQQDYTSPTFGGGTKLEIKR
